Results: patent US20160145684A1

What was measured:
[1] = biological target: Human statherin protein (human) (UniProt P02808); assay: indirect ELISA; coat: A-SB-U (buccal swab stirred in 30 mL urine, individual A) diluted 1:40; replicate R2
[2] = biological target: Human statherin protein (human) (UniProt P02808); assay: indirect ELISA; coat: sample 7, 0.78125 uL saliva/100 uL in urine, diluted 1:40; mean of triplicate
[3] = biological target: Human statherin protein (human) (UniProt P02808); assay: indirect ELISA; coat: sample 6, 1.5625 uL saliva/100 uL in urine, diluted 1:40; replicate R3
[4] = biological target: Human statherin protein (human) (UniProt P02808); assay: indirect ELISA; coat: B-SB-U (buccal swab stirred in 30 mL urine, individual B) diluted 1:40; mean of triplicate
[5] = biological target: Human statherin protein (human) (UniProt P02808); assay: indirect ELISA; coat: A-Saliva (pure saliva of individual A) diluted 1:40; replicate R1
[6] = biological target: Human statherin protein (human) (UniProt P02808); assay: indirect ELISA; coat: sample 5, 3.125 uL saliva/100 uL in urine, diluted 1:40; mean of triplicate
[7] = biological target: Human statherin protein (human) (UniProt P02808); assay: indirect ELISA; coat: B-Saliva (pure saliva of individual B) diluted 1:40; replicate R1
[8] = biological target: Human statherin protein (human) (UniProt P02808); assay: indirect ELISA; coat: sample 1, 50 uL saliva/100 uL in urine, diluted 1:40; replicate R2
[9] = biological target: Human statherin protein (human) (UniProt P02808); assay: indirect ELISA; coat: sample 7, 0.78125 uL saliva/100 uL in urine, diluted 1:40; replicate R3
[10] = biological target: Human statherin protein (human) (UniProt P02808); assay: indirect ELISA; coat: sample 2, 25 uL saliva/100 uL in urine, diluted 1:40; replicate R1
[11] = biological target: Human statherin protein (human) (UniProt P02808); assay: indirect ELISA; coat: B-Saliva (pure saliva of individual B) diluted 1:40; replicate R3
[12] = biological target: Human statherin protein (human) (UniProt P02808); assay: indirect ELISA; coat: sample 4, 6.25 uL saliva/100 uL in urine, diluted 1:40; replicate R1
[13] = biological target: Human statherin protein (human) (UniProt P02808); assay: indirect ELISA; coat: A-SP-U (about 500 uL spit in 30 mL urine, individual A) diluted 1:40; replicate R2
[14] = biological target: Human statherin protein (human) (UniProt P02808); assay: indirect ELISA; coat: sample 7, 0.78125 uL saliva/100 uL in urine, diluted 1:40; mean minus saliva-free urine blank
[15] = biological target: Human statherin protein (human) (UniProt P02808); assay: indirect ELISA; coat: B-SP-U (about 500 uL spit in 30 mL urine, individual B) diluted 1:40; mean of triplicate
[16] = biological target: Human statherin protein (human) (UniProt P02808); assay: indirect ELISA; coat: sample 1, 50 uL saliva/100 uL in urine, diluted 1:40; mean of triplicate
[17] = biological target: Human statherin protein (human) (UniProt P02808); assay: indirect ELISA; coat: sample 2, 25 uL saliva/100 uL in urine, diluted 1:40; mean minus saliva-free urine blank
[18] = biological target: Human statherin protein (human) (UniProt P02808); assay: indirect ELISA; coat: sample 3, 12.5 uL saliva/100 uL in urine, diluted 1:40; mean of triplicate
[19] = biological target: Human statherin protein (human) (UniProt P02808); assay: indirect ELISA; coat: sample 7, 0.78125 uL saliva/100 uL in urine, diluted 1:40; replicate R1
[20] = biological target: Human statherin protein (human) (UniProt P02808); assay: indirect ELISA; coat: sample 2, 25 uL saliva/100 uL in urine, diluted 1:40; replicate R3
[21] = biological target: Human statherin protein (human) (UniProt P02808); assay: indirect ELISA; coat: B-Saliva (pure saliva of individual B) diluted 1:40; mean of triplicate
[22] = biological target: Human statherin protein (human) (UniProt P02808); assay: indirect ELISA; coat: A-Saliva (pure saliva of individual A) diluted 1:40; replicate R2
[23] = biological target: Human statherin protein (human) (UniProt P02808); assay: indirect ELISA; coat: sample 1, 50 uL saliva/100 uL in urine, diluted 1:40; mean minus saliva-free urine blank
[24] = biological target: Human statherin protein (human) (UniProt P02808); assay: indirect ELISA; coat: B-SP-U (about 500 uL spit in 30 mL urine, individual B) diluted 1:40; replicate R2
[25] = biological target: Human statherin protein (human) (UniProt P02808); assay: indirect ELISA; coat: sample 4, 6.25 uL saliva/100 uL in urine, diluted 1:40; mean of triplicate
[26] = biological target: Human statherin protein (human) (UniProt P02808); assay: indirect ELISA; coat: A-Saliva (pure saliva of individual A) diluted 1:40; mean of triplicate
[27] = biological target: Human statherin protein (human) (UniProt P02808); assay: indirect ELISA; coat: sample 6, 1.5625 uL saliva/100 uL in urine, diluted 1:40; mean minus saliva-free urine blank
[28] = biological target: Human statherin protein (human) (UniProt P02808); assay: indirect ELISA; coat: sample 1, 50 uL saliva/100 uL in urine, diluted 1:40; replicate R1
[29] = biological target: Human statherin protein (human) (UniProt P02808); assay: indirect ELISA; coat: sample 3, 12.5 uL saliva/100 uL in urine, diluted 1:40; replicate R3
[30] = biological target: Human statherin protein (human) (UniProt P02808); assay: indirect ELISA; coat: A-SB-U (buccal swab stirred in 30 mL urine, individual A) diluted 1:40; replicate R1
[31] = biological target: Human statherin protein (human) (UniProt P02808); assay: indirect ELISA; coat: A-Saliva (pure saliva of individual A) diluted 1:40; replicate R3
[32] = biological target: Human statherin protein (human) (UniProt P02808); assay: indirect ELISA; coat: B-SB-U (buccal swab stirred in 30 mL urine, individual B) diluted 1:40; replicate R1
[33] = biological target: Human statherin protein (human) (UniProt P02808); assay: indirect ELISA; coat: sample 5, 3.125 uL saliva/100 uL in urine, diluted 1:40; mean minus saliva-free urine blank
[34] = biological target: Human statherin protein (human) (UniProt P02808); assay: indirect ELISA; coat: sample 6, 1.5625 uL saliva/100 uL in urine, diluted 1:40; mean of triplicate
[35] = biological target: Human statherin protein (human) (UniProt P02808); assay: indirect ELISA; coat: B-SB-U (buccal swab stirred in 30 mL urine, individual B) diluted 1:40; replicate R2
[36] = biological target: Human statherin protein (human) (UniProt P02808); assay: indirect ELISA; coat: B-SP-U (about 500 uL spit in 30 mL urine, individual B) diluted 1:40; replicate R3
[37] = biological target: Human statherin protein (human) (UniProt P02808); assay: indirect ELISA; coat: sample 4, 6.25 uL saliva/100 uL in urine, diluted 1:40; replicate R2
[38] = biological target: Human statherin protein (human) (UniProt P02808); assay: indirect ELISA; coat: sample 1, 50 uL saliva/100 uL in urine, diluted 1:40; replicate R3
[39] = biological target: Human statherin protein (human) (UniProt P02808); assay: indirect ELISA; coat: A-SP-U (about 500 uL spit in 30 mL urine, individual A) diluted 1:40; replicate R1
[40] = biological target: Human statherin protein (human) (UniProt P02808); assay: indirect ELISA; coat: A-SP-U (about 500 uL spit in 30 mL urine, individual A) diluted 1:40; mean of triplicate
[41] = biological target: Human statherin protein (human) (UniProt P02808); assay: indirect ELISA; coat: sample 7, 0.78125 uL saliva/100 uL in urine, diluted 1:40; replicate R2
[42] = biological target: Human statherin protein (human) (UniProt P02808); assay: indirect ELISA; coat: A-SB-U (buccal swab stirred in 30 mL urine, individual A) diluted 1:40; replicate R3
[43] = biological target: Human statherin protein (human) (UniProt P02808); assay: indirect ELISA; coat: sample 3, 12.5 uL saliva/100 uL in urine, diluted 1:40; mean minus saliva-free urine blank
[44] = biological target: Human statherin protein (human) (UniProt P02808); assay: indirect ELISA; coat: sample 5, 3.125 uL saliva/100 uL in urine, diluted 1:40; replicate R3
[45] = biological target: Human statherin protein (human) (UniProt P02808); assay: indirect ELISA; coat: sample 3, 12.5 uL saliva/100 uL in urine, diluted 1:40; replicate R2
[46] = biological target: Human statherin protein (human) (UniProt P02808); assay: indirect ELISA; coat: A-SB-U (buccal swab stirred in 30 mL urine, individual A) diluted 1:40; mean of triplicate
[47] = biological target: Human statherin protein (human) (UniProt P02808); assay: indirect ELISA; coat: sample 3, 12.5 uL saliva/100 uL in urine, diluted 1:40; replicate R1
[48] = biological target: Human statherin protein (human) (UniProt P02808); assay: indirect ELISA; coat: B-SP-U (about 500 uL spit in 30 mL urine, individual B) diluted 1:40; replicate R1
[49] = biological target: Human statherin protein (human) (UniProt P02808); assay: indirect ELISA; coat: sample 2, 25 uL saliva/100 uL in urine, diluted 1:40; mean of triplicate
[50] = biological target: Human statherin protein (human) (UniProt P02808); assay: indirect ELISA; coat: sample 4, 6.25 uL saliva/100 uL in urine, diluted 1:40; replicate R3
[51] = biological target: Human statherin protein (human) (UniProt P02808); assay: indirect ELISA; coat: sample 2, 25 uL saliva/100 uL in urine, diluted 1:40; replicate R2
[52] = biological target: Human statherin protein (human) (UniProt P02808); assay: indirect ELISA; coat: sample 5, 3.125 uL saliva/100 uL in urine, diluted 1:40; replicate R2
[53] = biological target: Human statherin protein (human) (UniProt P02808); assay: indirect ELISA; coat: sample 6, 1.5625 uL saliva/100 uL in urine, diluted 1:40; replicate R1
[54] = biological target: Human statherin protein (human) (UniProt P02808); assay: indirect ELISA; coat: sample 6, 1.5625 uL saliva/100 uL in urine, diluted 1:40; replicate R2
[55] = biological target: Human statherin protein (human) (UniProt P02808); assay: indirect ELISA; coat: B-Saliva (pure saliva of individual B) diluted 1:40; replicate R2
[56] = biological target: Human statherin protein (human) (UniProt P02808); assay: indirect ELISA; coat: sample 5, 3.125 uL saliva/100 uL in urine, diluted 1:40; replicate R1
[57] = biological target: Human statherin protein (human) (UniProt P02808); assay: indirect ELISA; coat: A-SP-U (about 500 uL spit in 30 mL urine, individual A) diluted 1:40; replicate R3
[58] = biological target: Human statherin protein (human) (UniProt P02808); assay: indirect ELISA; coat: sample 4, 6.25 uL saliva/100 uL in urine, diluted 1:40; mean minus saliva-free urine blank
[59] = biological target: Human statherin protein (human) (UniProt P02808); assay: indirect ELISA; coat: B-SB-U (buccal swab stirred in 30 mL urine, individual B) diluted 1:40; replicate R3

UniProt P02808, sequence (P02808 20-62 limits assumed): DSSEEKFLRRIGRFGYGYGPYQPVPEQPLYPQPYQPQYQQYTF

OD405 [1]: 0.287 OD405 | OD405 Mean [2]: 0.062 OD405 | OD405 [3]: 0.075 OD405 | OD405 Mean [4]: 0.306 OD405 | OD405 [5]: 1.21 OD405 | OD405 Mean [6]: 0.121 OD405 | OD405 [7]: 0.325 OD405 | OD405 [8]: 0.151 OD405 | OD405 [9]: 0.057 OD405 | OD405 [10]: 0.147 OD405 | OD405 [11]: 0.394 OD405 | OD405 [12]: 0.16 OD405 | OD405 [13]: 0.229 OD405 | OD405 Mean - Blank mean [14]: 0.032 OD405 | OD405 Mean [15]: 0.168 OD405 | OD405 Mean [16]: 0.155 OD405 | OD405 Mean - Blank mean [17]: 0.095 OD405 | OD405 Mean [18]: 0.137 OD405 | OD405 [19]: 0.069 OD405 | OD405 [20]: 0.114 OD405 | OD405 Mean [21]: 0.336 OD405 | OD405 [22]: 1.22 OD405 | OD405 Mean - Blank mean [23]: 0.125 OD405 | OD405 [24]: 0.168 OD405 | OD405 Mean [25]: 0.144 OD405 | OD405 Mean [26]: 1.22 OD405 | OD405 Mean - Blank mean [27]: 0.053 OD405 | OD405 [28]: 0.171 OD405 | OD405 [29]: 0.12 OD405 | OD405 [30]: 0.331 OD405 | OD405 [31]: 1.24 OD405 | OD405 [32]: 0.318 OD405 | OD405 Mean - Blank mean [33]: 0.091 OD405 | OD405 Mean [34]: 0.083 OD405 | OD405 [35]: 0.311 OD405 | OD405 [36]: 0.165 OD405 | OD405 [37]: 0.14 OD405 | OD405 [38]: 0.144 OD405 | OD405 [39]: 0.207 OD405 | OD405 Mean [40]: 0.224 OD405 | OD405 [41]: 0.06 OD405 | OD405 [42]: 0.291 OD405 | OD405 Mean - Blank mean [43]: 0.107 OD405 | OD405 [44]: 0.114 OD405 | OD405 [45]: 0.129 OD405 | OD405 Mean [46]: 0.303 OD405 | OD405 [47]: 0.161 OD405 | OD405 [48]: 0.171 OD405 | OD405 Mean [49]: 0.125 OD405 | OD405 [50]: 0.131 OD405 | OD405 [51]: 0.114 OD405 | OD405 [52]: 0.117 OD405 | OD405 [53]: 0.091 OD405 | OD405 [54]: 0.083 OD405 | OD405 [55]: 0.289 OD405 | OD405 [56]: 0.132 OD405 | OD405 [57]: 0.236 OD405 | OD405 Mean - Blank mean [58]: 0.114 OD405 | OD405 [59]: 0.289 OD405
Substance: Statherin Antibody (N-16), Santa Cruz Biotechnology, Inc. (Catalog No. sc-28112)
